Biological target: Aspergillus fumigatus core CCAAT-binding complex (HapB(230–299), HapC(40–137), HapE(47–164)) (Aspergillus fumigatus)
Experiment: SPR

B1: Aspergillus fumigatus HapX(24–158) (domain or fragment)
chain: SPSPGPGTPGSITSKEWVIPPRPKPGRKPATDTPPTKRKAQNRAAQRAFRERRAARVNELEEQIKKIEDEHEIHIAAFKEQITNLSREVEQCRSEMTWWRDRCHALEKEVSVERSAKEAIVKEFRSSLSDREAVR
**Q.** B1 was tested. Which Kd did it give?
**A.** 35 nM
